Legend:
Settings in all cases: 1 mM MgCl2, 0.5 mM EDTA, 0.5 mM DTT, 50 mM NaCl, 10 mM Tris-HCl pH 7.5, 0.05 mg/ml poly(dI-dC), 10 ul, room temperature 30 min; footprinting in same buffer …
[1] = biological target: T1, His-AphA (Vibrio parahaemolyticus RIMD 2210633) (UniProt Q87L53); test: DNase I footprinting
T1 sequence: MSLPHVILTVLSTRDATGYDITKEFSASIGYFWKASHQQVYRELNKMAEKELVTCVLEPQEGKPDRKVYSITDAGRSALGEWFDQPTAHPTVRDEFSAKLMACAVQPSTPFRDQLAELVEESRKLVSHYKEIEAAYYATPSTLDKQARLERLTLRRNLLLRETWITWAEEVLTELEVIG

[2] = biological target: T1, His-AphA (Vibrio parahaemolyticus RIMD 2210633); test: EMSA
[3] = biological target: T1, His-AphA (Vibrio parahaemolyticus RIMD 2210633); test: competition

Sequence	binding [1]	binding [2]	binding [3]
CGACGCATTATTAACCAGCACTTTCGCAAATTGCATTTGCAAAATGCAATAGCATGCAAATATGCCACTTGTTACATTGCTACTAATCACTTTCTCAGCAAAAAACCAACTACTACTTTATGATTATCCATTAGCTTTCATATTTTTACCCTATACTGCTAATTAATGAGGAAAAATACCTCAGTAAATGGATTTCACGGTT (double strand) [qrr4 promoter fragment]	binds	binds	
AGTGGTTGCTTATGAATCAATCCCAGGAAAAGGCGAGAACAGCGAACCTTCAACTCGTTAACATTTTATTTTCATTTACATTTTGACTAACTCAATTGTTAATAAATTACCTAAATTGCATTTTGAAATTGCAGAATGCAATTAAGTTTTGTTTTTTGCAAAAATTTATATAGGCAATATCAGTTTATATGAGATCTTGTGCCCAAAAATAAAGCTTTGAAAATTGGCATGATTAATGCATAATACTTCTCGACC (double strand) [qrr2 promoter fragment]		no binding	
AACTTCCAACCACATAATTGCGCAGCAAATAACCAGACATTTACACTACAAAAAACCCATAAAATACCAACAAATTAGAATTATTAACTACAAAATAACTCTATTGAGTATTATGTTAGTTTTTCAGGGTAATTTTGTCCTAGTATTCCACTTCATGCTTATTATTTATATACTACTTGCCTGCTGAGAGCTCATAAATCCAATCATACCTGCTCCAGCC (double strand) [aphA promoter fragment]	binds	binds	binds
AGTGGGTTGAAAGTCACATCCTTTTGCGGAAAATTCTTGGGAGCGCTGCCAAATTTTCGAAAGTTTACAGCAAAACTTATCAATAATAATGACATTACTGTCTATAAATTATCCATCAGATGTTGACCTTGTGCATATGCACCATTACACTCATCACTGCTTAAAGCAATTATTAAAATAATCAATTAGGGGGTTACCCCCAACAACAACTCAAATGGCAAGGAAAATGGATATGGACTCAATTGCAAAGAGACCTAGAACTAGGC (double strand) [opaR promoter fragment (footprinting)]	binds		
GGATAAGTTCAAATTGGATCCAGCCTTAGCAGGCTCGGTTATTCTAACGACAGTGACAGATGTGGTTGGTTTTTTCGCCTTTTTGGGAACGGCGAGTTTAGTCATGCTCTAAAAAGTCCACTGTTTATTAATCAATCATTAGCATAATAGAGACAAATTGCATAACGCACTTGCAAATTGCAAAAACATTCAAAGTTTAAGCAACGTATGTCACAGAAACCAC (double strand) [qrr3 promoter fragment]		no binding	

— article PMC3440409
